Measurements taken from paper PMC5057104, “The unravelling of the complex pattern of tyrosinase inhibition” (Scientific Reports, 2016).

How the values were obtained:
[1] = substrate: N[C@@H](Cc1ccc(O)cc1)C(=O)O; experiment: Kinetic analysis of tyrosinase (Lineweaver-Burk plots); format: biochemical, Bacillus megaterium; conditions: other: compound as TyrBm natural substrate; pH 7.4; 40.0 °C
Protocol: (§1) Tyrosinase inhibitory activity was determined spectrophotometrically in 96-well plates with a final volume of 200 μl. First, 50 mM PBS buffer pH 7.4 and 0.01 mM CuSO4 were mixed with 6 μg ml^−1 of purified enzyme. Then, the mixture was incubated at 40 °C for 2 minutes. Finally, various concentrations of inhibitor were mixed with 1.2 mM L-tyrosine or 2 mM L-dopa and were added to the pre-incubated mixture. […] The reaction mixture was then monitored for L-dopachrome formation (ε = 3600M^−1 cm^−1) by measuring the absorbance at 475 nm. Specific activity was calculated as the ratio of the conversion rate and the total protein content as determined by the Bradford analysis method (Bio-Rad, Israel). All measurements were performed in seven replicates.
(§2) The inhibition kinetics module of Sigma Plot 13.0 software was used (Systat Software, Inc., Richmond, CA, USA). All measurements were performed in 5-replicates.

[2] = substrate: N[C@@H](Cc1ccc(O)c(O)c1)C(=O)O; experiment: as above; format: biochemical, Bacillus megaterium; conditions: other: compound as TyrBm natural substrate; pH 7.4; 40.0 °C
Protocol: as §1, §2

B1: TyrBm (tyrosinase from Bacillus megaterium) (Priestia megaterium) (protein)
chain: MSNKYRVRKNVLHLTDTEKRDFVRTVLILKEKGIYDRYIAWHGAAGKFHTPPGSDRNAAHMSSAFLPWHREYLLRFERDLQSINPEVTLPYWEWETDAQMQDPSQSQIWSADFMGGNGNPIKDFIVDTGPFAAGRWTTIDEQGNPSGGLKRNFGATKEAPTLPTRDDVLNALKITQYDTPPWDMTSQNSFRNQLEGFINGPQLHNRVHRWVGGQMGVVPTAPNDPVFFLHHANVDRIWAVWQIIHRNQNYQPMKNGPFGQNFRDPMYPWNTTPEDVMNHRKLGYVYDIELRKSKRSS
notes: made in house; host or cells: Escherichia coli BL21
**Q.** With B1 as the protein, how does the Km [1] read?
**A.** The Km was 0.082 ± 0.006 mM.

**Q.** And the Vmax [1]?
**A.** Its Vmax is 3.62 µmol/min/mg.

**Q.** And the kcat [1]?
**A.** The kcat was 2.1 s⁻¹.

**Q.** What about the kcat/Km [1] of the same protein?
**A.** The kcat/Km was 25600 M⁻¹ s⁻¹.

**Q.** And the Km [2]?
**A.** The Km was 0.24 ± 0.02 mM.

**Q.** What about the Vmax [2] of the same protein?
**A.** Its Vmax is 30.3 µmol/min/mg.

**Q.** And the kcat [2]?
**A.** The kcat was 17.8 s⁻¹.

**Q.** And the kcat/Km [2]?
**A.** The kcat/Km was 74200 M⁻¹ s⁻¹.
